From patent US10920201B2, “Rice EPSPS mutant, encoding gene and use thereof” (GEVOTO LLC, priority 2016, dated 2021)

Experiments:
[1] = test system: EPSPS and C-P Lyase deficient E. coli; assay: Growth of transformed E. coli on solid culture media containing glyphosate (FIG. 4); assay type: cell-based; conditions: solid culture medium
Method: Besides, the glyphosate-resistant CP4-EPSPS gene mostly widely used currently in genetically modified crops in agriculture was further used in the present example as positive control, and E. coli respectively transformed by OsE gene (negative control group), OsEM gene (experiment group) and CP4-EPSPS gene (positive control group) were inoculated onto solid culture media respectively containing glyphosate of concentration of 0 mM, 1 mM, 50 mM, 100 mM, to observe growth states of bacterial colony in each group.

soybean plants = assay: Glyphosate spray test on soybean plants transformed with OsEM gene; assay type: in vivo
Source text: In the present example, wild-type soybean plants were taken as controls, the positive soybean plants transformed with OsEM gene obtained in Example 4 were taken as experiment group, to verify glyphosate resistance of OsEM gene in plants. An experiment method is as follows:
1 The OsEM transformed positive soybean plants 10-20 cm tall and 3 wild-type soybean plants with a similar size were numbered and then randomly arranged in an experiment area (preventing leaves from overlapping).
2 The area with the plants was measured, and glyphosate was sprayed at a dosage of 1060 g/hectare (0.106 g/m^2).
3 Commercially available Roundup® 41% ammonium glyphosate was used. Amount was calculated according to the experiment area and dosage of 0.106 g/m^2, then diluted 20 times with water, and uniformly sprayed on the plants in the experiment area.
4 After leaf surfaces were dry, the plants in the experiment group and the control group were moved into a greenhouse.
5 Growth states of the plants were evaluated and recorded.
Afterwards, plants grew well were transplanted to larger pots to grow, and the glyphosate (having a concentration of […]) was sprayed for a second time on a 21st day. After 2 weeks, the growth states of the plants in each group were captured and recorded.

[2] = test system: EDCE (E. coli DH5a with EPSPS gene and C-P Lyase gene being knocked out); assay: Glyphosate resistance of transformed E. coli in liquid screening culture media (growth saturation index); assay type: cell-based; set-up: key to Growth Saturation Index: saturation index=0, no growth; saturation index=1, little growth; saturation index=2, half-saturated growth; saturation index=3, flourishing growth, but still having room to grow; saturation index=4, rapid growth, the bacteria having reached a highest (saturated) concentration in the culture media or the growth having reached the limit
Source text: 1.6 A double knockout E. coli was transformed (E. Coli DH5a with EPSPS gene and C-P Lyase gene being knocked out, named as EDCE, wherein for a preparation method thereof, reference can be made to a Chinese invention patent with the filing number CN2016103256926, entitled “Method for Screening Glyphosate-resistant Gene, EPSPS Mutant Gene, Defect Strain and Application Thereof”).
In the above, the screening culture media were culture media obtained by adding antibiotic, Spec (Spectinomycin), Gen (Gentamycin), Amp (Ampicillin) of certain concentrations and glyphosate of different concentrations, with M9 as a basic medium. Basic components of the M9 culture medium were as follows: Na2HPO4 13˜14 g/L, KH2PO4 5.7˜6.3 g/L, NaCl 0.9˜1.1 g/L, NH4Cl 1.8˜2.2 g/L, glucose 37˜43 g/L, MgSO4˜7H2O 48˜52 g/L, and CaCl2) 21˜23 g/L.
In the present example, EDCE transformed by the wild-type rice EPSPS gene (named as OsE gene, SEQ ID NO. 3) was taken as a control group, and the monoclonal resistant bacterium containing the OsEM gene (SEQ ID NO. 2) obtained in step 3.1 of Example 1 was taken as an experiment group, to detect the glyphosate resistance of the OsEM gene in bacteria.
The control group and the experiment group were respectively inoculated into culture media (screening culture media) containing glyphosate concentrations of 0 mM, 5 mM, 10 mM, 20 mM, 50 mM, 75 mM, and 100 mM, to observe growth states of bacterial colony in each group, denoted by growth saturation index (saturation index=0, no growth; saturation index=1, little growth; saturation index=2, half-saturated growth; saturation index=3, flourishing growth, but still having room to grow; saturation index=4, rapid growth, the bacteria having reached a highest (saturated) concentration in the culture media or the growth having reached the limit).

[3] = 7th day after first glyphosate spray, 1060 g/hectare (0.106 g/m^2)

B1: OsEM: Rice EPSPS mutant gene (SEQ ID NO. 2) encoding 5-enolpyruvylshikimate-3-phosphate synthase mutant (SEQ ID NO. 1), 8 amino acid mutations (protein)
chain: MASNAAAAAAKAEEIVLQPIREISGAVQLPGSKSLSNRILLLSALSEGTTVVDNLLNSEDVHYMLEALKGLGLSVEADKVAKRAVVVGCGGKFPVEKDAKEEVQLFLGNAATAMRSLTAAVTAAGGNATYVLDGVPRMRERPIGDLVVGLKRLGADVDCFLGTECPPVRVKGIGGLPGGKVKLSGSISSQYLSALLMAAPLALGDVEIEIIDRLISIPYVEMTLRLMERFGVKAEHSDSWDRFYIKGGQQYESPGNAYVEGDASSASYFLAGAAITGGTVTVQGCGTTSLQGDVKFAEVLEMMGAKVTWTDTSVTVTGPPREPYGKKHLKAVDVNMNKMPDAAMTLAVVALFADGPTAIRDVASWRVKETERMVAIRTELTKLGASVEEGPDYCIITPPEKLNITAIDTYDDHRMAMAFSLAACADVPVTIRDPGCTRKTFPNYFDVLSTFVRN
Question: Which results are given for B1?
Answer: growth state of bacterial colony ([1]; 0 mM glyphosate): could grow normally; growth state of bacterial colony ([1]; 1 mM glyphosate): could grow normally; growth state of bacterial colony ([1]; 50 mM glyphosate): could grow normally; growth state of bacterial colony ([1]; 100 mM glyphosate): could grow normally; growth state of plants after second glyphosate spray (FIG. 7) (soybean plants; 1.06 g/m^2 glyphosate sprayed on 21st day, recorded after 2 weeks): could grow continuously; number of plants with Growth State + (low glyphosate resistance) (soybean plants; [3]): 3; number of plants with Growth State ++ (medium glyphosate resistance) (soybean plants; [3]): 1; number of plants with Growth State +++ (high glyphosate resistance) (soybean plants; [3]): 4; number of plants with Growth State − (no glyphosate resistance) (soybean plants; [3]): 2; glyphosate concentration to which resistance is endowed (soybean plants; soybean plants transformed by the gene): 1.06 g/m^2; Growth Saturation Index ([2]; 0 mM glyphosate in culture medium): 4; Growth Saturation Index ([2]; 5 mM glyphosate in culture medium): 4; Growth Saturation Index ([2]; 10 mM glyphosate in culture medium): 4; Growth Saturation Index ([2]; 20 mM glyphosate in culture medium): 4; Growth Saturation Index ([2]; 50 mM glyphosate in culture medium): 4; Growth Saturation Index ([2]; 75 mM glyphosate in culture medium): 4; Growth Saturation Index ([2]; 100 mM glyphosate in culture medium): 4; glyphosate concentration to which resistance is endowed ([2]; E. coli transformed by the gene): 100 mM
